The source of these data is PMC8012256.

The target in the test is cross-linked CA A14C/E45C/W184A/M185A hexamer (HIV-1). The experiment in a line: crystal structure.

Consider “Sec24C(228–242) peptide (from UniProt P53992-1 228-242)”, for which the stoichiometry N (Sec24C(228–242) molecules per CA hexamer) is 6.

For orientation: stoichiometry N means the number of molecules, sites or subunits per partner or assembly. Turning to “cross-linked CA A14C/E45C/W184A/M185A hexamer (complex)”, the stoichiometry N is 6.
